In paper PMC7058303 one finds stoichiometry N data, which are given here for one substance.

The target in the assay is Sus1 from S. cerevisiae (recombinant) (Saccharomyces cerevisiae) (UniProt Q6WNK7). Put plainly: SEC; Superdex 75 10/300 GL, calibrated with molecular weight markers; non-dissociating conditions; elution volume 12 ml. (In gel filtration, larger molecules generally elute earlier.)

As usually defined, the stoichiometry N is the number of molecules, sites or subunits per partner or assembly. Take “Sus1 from S. cerevisiae (recombinant) (from UniProt Q6WNK7 1-96) (natural protein)”: the stoichiometry N is 3.
